# Values quoted from earlier work, collected in publication PMC11668491.
# Target: UBC2 (Saccharomyces cerevisiae) (UniProt P06104)
# UniProt P06104, sequence (P06104 whole entry): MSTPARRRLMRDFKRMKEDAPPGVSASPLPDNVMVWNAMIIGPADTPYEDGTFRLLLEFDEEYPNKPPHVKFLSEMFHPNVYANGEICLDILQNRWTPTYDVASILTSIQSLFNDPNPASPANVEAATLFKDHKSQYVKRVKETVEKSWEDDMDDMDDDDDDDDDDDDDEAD
substance,measurement,value
UBR1 U2BR (from UniProt P19812),Kd,140 nM
